Results published in IntAct's records for PubMed 25938661.

B1: Repulsive guidance molecule B (Homo sapiens), Q6NW40 (parent)
chain: MGLRAAPSSAAAAAAEVEQRRSPGLCPPPLELLLLLLFSLGLLHAGDCQQPAQCRIQKCTTDFVSLTSHLNSAVDGFDSEFCKALRAYAGCTQRTSKACRGNLVYHSAVLGISDLMSQRNCSKDGPTSSTNPEVTHDPCNYHSHAGAREHRRGDQNPPSYLFCGLFGDPHLRTFKDNFQTCKVEGAWPLIDNNYLSVQVTNVPVVPGSSATATNKITIIFKAHHECTDQKVYQAVTDDLPAAFVDGTTSGGDSDAKSLRIVERESGHYVEMHARYIGTTVFVRQVGRYLTLAIRMPEDLAMSYEESQDLQLCVNGCPLSERIDDGQGQVSAILGHSLPRTSLVQAWPGYTLETANTQCHEKMPVKDIYFQSCVFDLLTTGDANFTAAAHSALEDVEALHPRKERWHIFPSSGNGTPRGGSDLSVSLGLTCLILIVFL
partner: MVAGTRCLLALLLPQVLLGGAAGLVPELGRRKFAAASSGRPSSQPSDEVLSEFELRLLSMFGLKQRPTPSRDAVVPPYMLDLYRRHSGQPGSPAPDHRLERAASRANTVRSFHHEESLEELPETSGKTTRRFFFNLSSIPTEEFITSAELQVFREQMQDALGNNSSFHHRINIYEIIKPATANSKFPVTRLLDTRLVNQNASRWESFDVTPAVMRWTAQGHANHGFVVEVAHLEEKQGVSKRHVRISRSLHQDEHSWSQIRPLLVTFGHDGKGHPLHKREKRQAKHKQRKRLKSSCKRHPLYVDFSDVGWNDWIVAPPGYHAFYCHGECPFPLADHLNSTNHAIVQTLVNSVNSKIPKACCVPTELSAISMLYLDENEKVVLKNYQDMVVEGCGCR
B2: Hemojuvelin (Homo sapiens), Q6ZVN8-1 (parent)
chain: MGEPGQSPSPRSSHGSPPTLSTLTLLLLLCGHAHSQCKILRCNAEYVSSTLSLRGGGSSGALRGGGGGGRGGGVGSGGLCRALRSYALCTRRTARTCRGDLAFHSAVHGIEDLMIQHNCSRQGPTAPPPPRGPALPGAGSGLPAPDPCDYEGRFSRLHGRPPGFLHCASFGDPHVRSFHHHFHTCRVQGAWPLLDNDFLFVQATSSPMALGANATATRKLTIIFKNMQECIDQKVYQAEVDNLPVAFEDGSINGGDRPGGSSLSIQTANPGNHVEIQAAYIGTTIIIRQTAGQLSFSIKVAEDVAMAFSAEQDLQLCVGGCPPSQRLSRSERNRRGAITIDTARRLCKEGLPVEDAYFHSCVFDVLISGDPNFTVAAQAALEDARAFLPDLEKLHLFPSDAGVPLSSATLLAPLLSGLFVLWLCIQ
partner: B1 partner

Variants of: B1
Settings: with bmp2_human BMP2, P12643

| Variant | effect of a mutation on the interaction |
| --- | --- |
| H106R | decreasing interaction strength |

Variants of: B2
Settings: with bmp2_human BMP2, P12643

| Variant | effect of a mutation on the interaction |
| --- | --- |
| L101P | decreasing interaction strength |
| G99R | decreasing interaction strength |
